Data reported in article PMC8115288 (2021).

B1: GST-CTD (C-terminal domain of HIV-1 integrase, aa 201-288) [HIV-1 (Hx3B)] / His6-SUMO-INI1_(183-304) [not stated] (parent complex)
chain 1: VDIIATDIQTKELQKQITKIQNFRVYYRDSRNPLWKGPAKLLWKGEGAVVIQDNSDIKVVPRRKAKIIRDYGKQMAGDDCVASRQDED
chain 2: PEVLVPIRLDMEIDGQKLRDAFTWNMNEKLMTPEMFSEILCDDLDLNPLTFVPAIASAIRQQIESYPTDSILEDQSDQRVIIKLNIHVGNISLVDQFEWDMSEKENSPEKFALKLCSELGLG

Variants of: B1
Test: Alpha assay; low salt conditions; parent: 100; read off a plot

| Variant | percent of parent |
| --- | --- |
| chain 1 W35F | ~90 % of WT |
| chain 1 W35K | ~4 % of WT |
| chain 1 W35A | ~17 % of WT |
| chain 1 W35E | ~2 % of WT |
| chain 1 K44A | ~15 % of WT |
| chain 1 K64A, chain 1 K66A | ~2 % of WT |
